Test results: patent WO2012175740A1
pIC50: −log10 of the molar value. Like-named read-outs stand apart in the source and are kept apart here.

Key:
[1] = molecular target: cyno IgE c(epsilon)2-c(epsilon)3-c(epsilon)4 Fc fragment with C-terminal (His)10 tag (cynomolgus monkey); experiment: Alphascreen, competition with HuFc(epsilon)RI(alpha)Fc for cyno IgE Fc
[2] = molecular target: cyno IgE c(epsilon)2-c(epsilon)3-c(epsilon)4 Fc fragment with C-terminal (His)10 tag (cynomolgus monkey); experiment: as above; remark: listed apart in the source

Sequence of cyno IgE c(epsilon)2-c(epsilon)3-c(epsilon)4 Fc fragment with C-terminal (His)10 tag (cynomolgus monkey) (chain, as listed by the source): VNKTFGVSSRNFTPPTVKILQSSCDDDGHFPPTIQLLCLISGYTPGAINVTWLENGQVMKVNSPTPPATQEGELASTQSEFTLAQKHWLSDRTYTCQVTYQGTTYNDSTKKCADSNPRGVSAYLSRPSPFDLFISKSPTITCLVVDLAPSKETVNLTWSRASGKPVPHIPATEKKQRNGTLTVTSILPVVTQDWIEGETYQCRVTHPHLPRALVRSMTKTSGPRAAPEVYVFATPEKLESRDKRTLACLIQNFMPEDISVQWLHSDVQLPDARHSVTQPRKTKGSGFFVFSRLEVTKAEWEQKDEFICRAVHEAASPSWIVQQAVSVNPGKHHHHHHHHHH

## Fab obtained by papain digestion of commercially obtained omalizumab
[1]
  % inhibition at 250 nM: 99.3%
  pIC50: 8.86
[2]
  % inhibition at 250 nM: 97.7%
  pIC50: 8.89
